From paper PMC3796545, “Protein-Protein Interactions as a Strategy towards Protein-Specific Drug Design: The Example of Ataxin-1” (PLoS ONE, 2013)

T1: ATX1 AXH (residues A567-K689 of human ATX1) (human)
T1 chain: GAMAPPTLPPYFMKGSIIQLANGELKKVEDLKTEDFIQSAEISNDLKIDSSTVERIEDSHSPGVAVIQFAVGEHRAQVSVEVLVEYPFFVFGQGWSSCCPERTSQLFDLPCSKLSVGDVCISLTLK


Legend:
[1] = biological target: ATX1 AXH (residues A567-K689 of human ATX1) (human); assay: NMR relaxation (T1, T2, rotational correlation time); free AXH, before addition of the peptide; 27°C, 600 MHz
[2] = biological target: ATX1 AXH (residues A567-K689 of human ATX1) (human); assay: ITC; 0.041 mM AXH in the cell, 0.410 mM peptide in the syringe, 21 aliquots; 25°C; 50 mM Tris-HCl pH 7, 50 mM NaCl, 2 mM TCEP; single-site model; averages of three measurements
Target sequence in this assay (P54253 567-689): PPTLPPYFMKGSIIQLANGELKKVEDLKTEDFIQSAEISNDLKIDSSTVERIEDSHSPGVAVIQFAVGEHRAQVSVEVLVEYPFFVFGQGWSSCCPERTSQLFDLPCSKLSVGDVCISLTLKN

[3] = biological target: T1, ATX1 AXH (residues A567-K689 of human …); assay: ITC

Molecule | stoichiometry N [1] | Kd [2] | Kd [3] | fold change of Kd against wild-type L-CICp [2]
ATX1 AXH (residues A567-K689 of human ATX1) (domain or fragment) | 2 |  |  | 
PWHSLVPFLAPSQ [CICp] |  | 8000 nM |  | 
VFPWHSLVPFLAPSQ [L-CICp] |  | 33 nM | 30 nM | 
VFPAHSLVPFLAPSQ [L-CICp with W37 mutated to alanine] |  |  | 2600 nM | 100 fold
VFPWHSAVPFLAPSQ [L-CICp with L40 mutated to alanine] |  |  | 500 nM | 10 fold
